Data from publication PMC9355956, “Structure of human spermine oxidase in complex with a highly selective allosteric inhibitor” (Communications Biology, 2022).
Several values for one entry are separate records, joined by “and”; a condition that tells them apart may be missing. Identical values can stand only once.

Substrate: NCCCNCCCCNCCCN
Experiment: purified protein, by the assay type
Details: other: substrate, 2.5 nM hSMOX; 11.3 °C

B1: hSMOX (Homo sapiens) (protein)
chain: MQSCESSGDSADDPLSRGLRRRGQPRVVVIGAGLAGLAAAKALLEQGFTDVTVLEASSHIGGRVQSVKLGHATFELGATWIHGSHGNPIYHLAEANGLLEETTDGERSVGRISLYSKNGVACYLTNHGRRIPKDVVEEFSDLYNEVYNLTQEFFRHDKPVNAESQNSVGVFTREEVRNRIRNDPDDPEATKRLKLAMIQQYLKVESCESSSHSMDEVSLSAFGEWTEIPGAHHIIPSGFMRVVELLAEGIPAHVIQLGKPVRCIHWDQASARPRGPEIEPRGEGDHNHDTGEGGQGGEEPRGGRWDEDEQWSVVVECEDCELIPADHVIVTVSLGVLKRQYTSFFRPGLPTEKVAAIHRLGIGTTDKIFLEFEEPFWGPECNSLQFVWEDEAESHTLTYPPELWYRKICGFDVLYPPERYGHVLSGWICGEEALVMEKCDDEAVAEICTEMLRQFTGNPNIPKPRRILRSAWGSNPYFRGSYSYTQVGSSGADVEKLAKPLPYTESSKTAPMQVLFSGEATHRKYYSTTHGALLSGQREAARLIEMYRDLFQQGT
- Km: 34 µM and 33.9 ± 2.7 µM
